Test results as given in patent publication US20100004431A1 (Xencor, published 2010).

What was measured:
[1] = biological target: T1, CD25 (R&D systems cat. #223-2A/CF) (UniProt P01589 22-213, limits assumed); assay: SPR (Biacore), single variant in H1L1 background
T1 construct: Bought soluble protein
T1 sequence (looked up): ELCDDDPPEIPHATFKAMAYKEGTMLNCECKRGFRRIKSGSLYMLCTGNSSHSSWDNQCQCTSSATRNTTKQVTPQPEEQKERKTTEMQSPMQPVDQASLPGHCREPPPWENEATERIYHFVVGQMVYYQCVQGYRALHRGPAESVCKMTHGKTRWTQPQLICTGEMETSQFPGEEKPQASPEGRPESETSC
Method: (§1) Binding was measured by injection of two-fold serial dilutions of CD25 (0 nM to 50 nM; R&D systems) in buffer at 25° C. with a flow rate of 25-30 μL/min for 2 min followed by a dissociation phase of 4-5 min. Association rates (kₒₙ) and dissociation rates (koff) were calculated using a simple one-to-one Langmuir binding model (BIAcore Evaluation Software version 3.2). The equilibrium dissociation constant (Kd) was calculated as the ratio of koff/kₒₙ).

[2] = biological target: T1, CD25 (R&D systems cat. #223-2A/CF); assay: Biacore (SPR); antibody captured on Protein A, CD25 injected
Method: as §1

fold increase in affinity against anti-CD25 H1L1 [1]: 2.4 fold
Kd [2]: 0.13 nM
koff [2]: 0.00026 s⁻¹
kon [2]: 2e+06 M⁻¹ s⁻¹
B1: anti-CD25 H1L1 single variant VH I69M (antibody, IgG1, V domains shown)
VH: QVQLVQSGAEVKKPGASVKVSCKASGYTFTSYRMHWVRQAPGQGLEWMGYINPSTGYTEYNQKFQGRVTMTADKSISTAYMELSRLRSDDTAVYYCARGGGVFDYWGQGTLVTVSS
VL: QIVLTQSPATLSLSPGERATLSCRASSSISYMHWFQQKPGQSPQLLIYTTSNLASGVPARFSGSGSGTDYTLTISSLQPEDFAVYYCHQRSTYPLTFGSGTKLEIK
notes: IgG1 format
